Two molecules from article PMC4609182 (2015) can be followed below.

Experiment [1] has as its target Ub (Homo sapiens). The experiment is described as follows: ITC.
Experiment [2] addresses T1, Parkin R0RBR module (RING0, RING1, IBR, RING2), wild type (rat, UniProt Q9JK66 141-465).
T1 chain: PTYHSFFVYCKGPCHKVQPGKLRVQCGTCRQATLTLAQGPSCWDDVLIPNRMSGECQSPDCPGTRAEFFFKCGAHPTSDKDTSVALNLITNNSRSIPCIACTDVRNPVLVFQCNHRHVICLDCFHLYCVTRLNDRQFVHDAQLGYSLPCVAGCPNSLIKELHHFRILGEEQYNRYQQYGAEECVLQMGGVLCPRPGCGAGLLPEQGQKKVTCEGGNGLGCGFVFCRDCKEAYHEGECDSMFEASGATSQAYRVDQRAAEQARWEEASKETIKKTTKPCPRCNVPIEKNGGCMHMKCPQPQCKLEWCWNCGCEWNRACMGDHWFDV
The experiment can be described thus: ITC.

B1: Parkin R0RBR module (RING0, RING1, IBR, RING2), wild type (domain or fragment)
chain: PTYHSFFVYCKGPCHKVQPGKLRVQCGTCRQATLTLAQGPSCWDDVLIPNRMSGECQSPDCPGTRAEFFFKCGAHPTSDKDTSVALNLITNNSRSIPCIACTDVRNPVLVFQCNHRHVICLDCFHLYCVTRLNDRQFVHDAQLGYSLPCVAGCPNSLIKELHHFRILGEEQYNRYQQYGAEECVLQMGGVLCPRPGCGAGLLPEQGQKKVTCEGGNGLGCGFVFCRDCKEAYHEGECDSMFEASGATSQAYRVDQRAAEQARWEEASKETIKKTTKPCPRCNVPIEKNGGCMHMKCPQPQCKLEWCWNCGCEWNRACMGDHWFDV
modifications: unmodified (non-phosphorylated) ubiquitin; only the figure label 'Ub' is given, so wild type is assumed (the non-phosphorylatable control in Fig EV3B is a separate His-tagged UbS65A)
Turning to B1, the dissociation constant (Kd) (commonly a measure of binding affinity in units of concentration) in experiment [1] is 41 µM.

B2: Parkin Ubl domain (ubiquitin-like domain), unmodified (domain or fragment)
chain: MIVFVRFNSSYGFPVEVDSDTSIFQLKEVVAKRQGVPADQLRVIFAGKELQNHLTVQNCDLEQQSIVHIVQRPQRK
On to B2, for which the affinity in experiment [2], expressed as Kd, was 14 µM.
